The test deals with HA H7 HK17 (A/Hong Kong/125/2017(H7N9)) hemagglutinin (influenza A virus A/Hong Kong/125/2017(H7N9)). Kind of test: BLI.

MEDI8852 Fab (wildtype) came in with a Kd of 0.21 nM.

The term Kd denotes the concentration at which binding is half-saturated.

Source of the values: article doi:10.1101/2022.04.10.487811.
